# Measured values published in paper PMC3539977, “Plant Coilin: Structural Characteristics and RNA-Binding Properties” (PLoS ONE, 2013).
# How the values were obtained:
# [1] = test system: Co-86-608 (Arabidopsis thaliana); assay: EMSA; conditions: apparent; RNA taken as U1 snRNA; EMSA: 20 mM Tris-HCl pH 7.5, 1 mM DTT, 3 mM MgCl2, 50 mM NaCl, on ice 15 min; 0.1 ug RNA, 2% Tris-acetate agarose gel
# [2] = test system: IDD-212-350-NLS2 (Arabidopsis thaliana); assay: EMSA; conditions: apparent; EMSA: 20 mM Tris-HCl pH 7.5, 1 mM DTT, 3 mM MgCl2, 50 mM NaCl, on ice 15 min; 0.1 ug RNA, 2% Tris-acetate agarose gel
# [3] = test system: IDD-118-212 (Arabidopsis thaliana); assay: EMSA; conditions: apparent; EMSA: 20 mM Tris-HCl pH 7.5, 1 mM DTT, 3 mM MgCl2, 50 mM NaCl, on ice 15 min; 0.1 ug RNA, 2% Tris-acetate agarose gel
# [4] = test system: IDD (Arabidopsis thaliana); assay: EMSA; conditions: apparent; EMSA: 20 mM Tris-HCl pH 7.5, 1 mM DTT, 3 mM MgCl2, 50 mM NaCl, on ice 15 min; 0.1 ug RNA, 2% Tris-acetate agarose gel
# [5] = test system: NOD (Arabidopsis thaliana); assay: EMSA; conditions: apparent; EMSA: 20 mM Tris-HCl pH 7.5, 1 mM DTT, 3 mM MgCl2, 50 mM NaCl, on ice 15 min; 0.1 ug RNA, 2% Tris-acetate agarose gel
# [6] = test system: NOD-RK1 (Arabidopsis thaliana); assay: EMSA; conditions: apparent; EMSA: 20 mM Tris-HCl pH 7.5, 1 mM DTT, 3 mM MgCl2, 50 mM NaCl, on ice 15 min; 0.1 ug RNA, 2% Tris-acetate agarose gel
# [7] = test system: IDD-212-350 (Arabidopsis thaliana); assay: EMSA; conditions: apparent; EMSA: 20 mM Tris-HCl pH 7.5, 1 mM DTT, 3 mM MgCl2, 50 mM NaCl, on ice 15 min; 0.1 ug RNA, 2% Tris-acetate agarose gel
# [8] = molecular target: the molecule itself; assay: dynamic light scattering; protein at 0.05 mg/ml in 1 mM phosphate buffer pH 7.5, Zetasizer Nano ZS; free protein, and with U1 snRNA at a protein:RNA molar ratio of 5:1
molecule,measurement,setting,value
U1 snRNA,Kd,[1],40 nM
same,Kd,[2],480 nM
same,Kd,[3],1420 nM
same,Kd,[4],40 nM
same,Kd,[5],760 nM
same,Kd,[6],2250 nM
same,Kd,[7],60 nM
"Atcoilin N-terminal ordered domain (NOD), residues 1-117 (domain or fragment, Arabidopsis thaliana, UniProt Q8RWK8 1-117, looked up, coilin of Arabidopsis thaliana (NM_101173.4; GI:42562030), NOD, 1-117 aa residues; also called N-terminal domain; source: E. coli JM109, purified under denaturing conditions (Ni-NTA agarose), renatured by dialysis) MEEEKVRVRLVFEDRRILSKYQKKQGLTRSWVVLNRKCHRTISEFSDHIFHTFSLCEACPHGLSLSMEGFVLPPFESSCVLKDKDIVCVKKKKESLLEIVGEDSDENVYNAIEVEER",binding result,[8],binds
"Arabidopsis thaliana coilin (Atcoilin), wild type (natural protein, UniProt Q8RWK8 1-608, looked up, coilin of Arabidopsis thaliana, a 608-amino acid protein (NM_101173.4; GI:42562030); Cloned into the PQE30 vector; forms oligomers larger than a decamer in solution by DLS; also called wt coilin; wt Atcoilin; source: E. coli JM109, purified under denaturing conditions (Ni-NTA agarose), renatured by dialysis) MEEEKVRVRLVFEDRRILSKYQKKQGLTRSWVVLNRKCHRTISEFSDHIFHTFSLCEACPHGLSLSMEGFVLPPFESSCVLKDKDIVCVKKKKESLLEIVGEDSDENVYNAIEVEERPQIRPGEMLLANEEFQKETGGYESESEEDELEEEAEEFVPEKKASKKRKTSSKNQSTKRKKCKLDTTEESPDERENTAVVSNVVKKKKKKKSLDVQSANNDEQNNDSTKPMTKSKRSSQQEESKEHNDLCQLSAETKKTPSRSARRKKAKRQWLREKTKLEKEELLQTQLVVAPSQKPVITIDHQATKEKHCETLENQQAEEVSDGFGDEVVPVEVRPGHIRFKPLAGTDEASLDSEPLVENVLWNGNMTKKKGQKWGTEKSGFSKRYAQDFNEDATTQPAEAETLANCPIDYEQLVAYTGSVKKGDVIAYRLIELTSSWTPEVSSFRVGKISYYDPDSKMVTLMPVQEFPIEKKTEEDDDFCMQPDTSLYKEDGSLEIEFSALLDVRSVKTSSSDSAEVAKSALPEPDQSAKKPKLSANKELQTPAKENGEVSPWEELSEALSAKKAALSQANNGWNKKGSSSGGSWSYKALRGSAMGPVMNYLRSQKEI",stoichiometry N,[8],> 10
